Source: article PMC4939597, “Mechanism for insulin-like peptide 5 distinguishing the homologous relaxin family peptide receptor 3 and 4” (Scientific Reports, 2016)
Blank lines part the entries; values can stand above or below the compound they belong to. No end group written: not given here.

Key:
human RXFP4 [1] = target: T1, human RXFP4 (Homo sapiens, UniProt Q8TDU9); experiment: Receptor activation assay, CRE-controlled NanoLuc reporter; format: cell-based
T1 construct: expressed in transfected cells; host or cells: HEK293T
Description: (§1) Figure 4 Receptor activation activities of the mature INSL5 and R3/I5 mutants towards RXFP3 and RXFP4. HEK293T cells transiently cotransfected by human RXFP3 or human RXFP4 and a CRE-controlled NanoLuc reporter were used for the activation assays. The measured data were expressed as mean ± SE (n = 3) and fitted to sigmoidal or linear curves using the software SigmaPlot 10.0.
(§2) The receptor activation assays of the mature INSL5 and R3/I5 mutants were carried out using a cAMP-response element (CRE)-controlled NanoLuc reporter according to our previous procedure. Briefly, HEK293T cells were transiently cotransfected with the expression construct of human RXFP3 or human RXFP4 and the CRE-controlled NanoLuc reporter vector pNL1.2/CRE. Next day, the transfected cells were trypsinised, seeded into a 96-well plate, and continuously cultured for 24–36 h to ~90% confluence. To start activation assay, the medium was removed and the activation solution (serum-free DMEM medium plus 1% bovine serum albumin) containing 1.0 μM of forskolin and varied concentrations of peptide was added (100 μl/well). After being continuously cultured at 37 °C for 4 h, the activation solution was removed and the cells were lysed by lysis solution (100 μl/well, from Promega). The cell lysate was then transferred to a white opaque 96-well plate (50 μl/well), mixed with the freshly diluted substrate (50 μl/well), and bioluminescence was immediately measured on a SpectraMax M5 plate reader (Molecular Devices) using the luminescence mode. The measured bioluminescence data were expressed as mean ± SE (n = 3) and fitted to sigmoidal or linear curves using the SigmaPlot10.0 software.

human RXFP3 [2] = target: T2, human RXFP3 (Homo sapiens, UniProt Q9NSD7); experiment: as above; format: cell-based; settings: for fold lower activation potency towards RXFP3 compared with wild-type R3/I5: lower than wild-type R3/I5
T2 construct: expressed in transfected cells; host or cells: HEK293T
T2 sequence (Q9NSD7 1-469): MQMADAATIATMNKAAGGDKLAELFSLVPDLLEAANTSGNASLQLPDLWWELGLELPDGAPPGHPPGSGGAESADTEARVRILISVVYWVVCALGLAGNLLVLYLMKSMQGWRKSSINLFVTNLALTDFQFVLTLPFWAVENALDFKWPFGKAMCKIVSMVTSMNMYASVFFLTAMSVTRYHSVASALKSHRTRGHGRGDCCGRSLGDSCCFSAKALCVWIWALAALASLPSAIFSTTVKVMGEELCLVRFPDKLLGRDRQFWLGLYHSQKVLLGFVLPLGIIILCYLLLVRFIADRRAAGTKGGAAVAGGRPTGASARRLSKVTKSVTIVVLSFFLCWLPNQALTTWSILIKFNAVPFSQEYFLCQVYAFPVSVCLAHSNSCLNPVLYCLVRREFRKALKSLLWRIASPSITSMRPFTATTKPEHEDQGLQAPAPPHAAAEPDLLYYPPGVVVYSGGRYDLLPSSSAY
Description: as §1, §2

human RXFP4 [3] = target: T1, human RXFP4; experiment: Receptor binding assay, competition with NanoLuc-conjugated R3/I5 tracer
Description: (§3) Figure 3 Receptor binding activities of the mature INSL5 and R3/I5 mutants towards RXFP3 and RXFP4. A NanoLuc-conjugated R3/I5 peptide was used as tracer and HEK293T cells transiently overexpressing human RXFP3 or human RXFP4 were used as receptor source. The tracer concentration used in these assays was 0.5 nM. The nonspecific binding was obtained by competition with 1.0 μM of relaxin-3. The measured data were expressed as mean ± SE (n = 3) and fitted to sigmoidal curves using the software SigmaPlot 10.0.
(§4) The receptor binding assays of the mature INSL5 and R3/I5 mutants were carried out using a NanoLuc-conjugated R3/I5 peptide as tracer and the human embryonic kidney (HEK) 293T cells transiently overexpressing human RXFP3 or human RXFP4 as receptor source. Nonspecific binding was obtained by competition with 1.0 μM of human relaxin-3. Briefly, HEK293T cells were transiently transfected with the expression construct of human RXFP3 or human RXFP4. Next day, the transfected cells were trypsinised, seeded into a 96-well plate, and continuously cultured for 24–36 h to confluence. To start binding assay, the medium was removed and the binding solution (serum-free DMEM medium plus 1% bovine serum albumin) containing 0.5 nM of the NanoLuc-conjugated R3/I5 tracer and varied concentrations of competitor was added (100 μl/well). After incubation at 21 °C for 2 h, the binding solution was removed and the cells were washed twice by ice-cold phosphate-buffered saline (200 μl/well for each wash). Thereafter, the cells were lysed by lysis solution (100 μl/well, from Promega, Madison, WI, USA) and the cell lysate was transferred to a white opaque 96-well plate (50 μl/well). After mixing with the freshly diluted substrate (50 μl/well), bioluminescence was immediately measured on a SpectraMax M5 plate reader (Molecular Devices, Sunnyvale, CA, USA) using the luminescence mode. The measured bioluminescence data were expressed as mean ± SE (n = 3) and fitted to sigmoidal curves using the SigmaPlot10.0 software.

human RXFP3 [4] = target: T2, human RXFP3; experiment: as above
Description: as §3, §4

[5] = HEK293T cells cotransfected with human RXFP4 and CRE-controlled NanoLuc reporter, 1.0 μM forskolin, 37 °C, 4 h, mean ± SE, n = 3, SEM
[6] = HEK293T cells cotransfected with human RXFP3 and CRE-controlled NanoLuc reporter, 1.0 μM forskolin, 37 °C, 4 h, mean ± SE, n = 3, N.D., not detectable, SEM
[7] = HEK293T cells transiently overexpressing human RXFP4, 0.5 nM NanoLuc-conjugated R3/I5 tracer, 21 °C, 2 h, mean ± SE, n = 3, SEM
[8] = HEK293T cells transiently overexpressing human RXFP3, 0.5 nM NanoLuc-conjugated R3/I5 tracer, 21 °C, 2 h, mean ± SE, n = 3, SEM

T1 sequence (Q8TDU9 whole entry): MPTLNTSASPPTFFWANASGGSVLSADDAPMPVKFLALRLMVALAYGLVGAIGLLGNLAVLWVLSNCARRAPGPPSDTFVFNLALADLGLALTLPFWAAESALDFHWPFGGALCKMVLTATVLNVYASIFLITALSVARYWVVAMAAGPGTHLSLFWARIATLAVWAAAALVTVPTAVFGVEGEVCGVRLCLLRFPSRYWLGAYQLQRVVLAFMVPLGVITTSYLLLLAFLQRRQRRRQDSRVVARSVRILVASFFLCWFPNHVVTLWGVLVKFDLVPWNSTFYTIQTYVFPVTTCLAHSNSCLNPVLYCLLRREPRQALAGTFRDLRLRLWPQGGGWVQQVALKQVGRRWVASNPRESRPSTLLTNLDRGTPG

Compound: CC[C@H](C)[C@@H]1NC(=O)[C@H](Cc2ccccc2)NC(=O)[C@H](CCC(=O)O)NC(=O)[C@H](CCCNC(=N)N)NC(=O)CNC(=O)[C@@H](NC(=O)[C@H](CC(C)C)NC(=O)[C@H](CCCCN)NC(=O)[C@@H](NC(=O)CNC(=O)[C@H](Cc2ccc(O)cc2)NC(=O)[C@@H]2CCCN2C(=O)[C@H](C)NC(=O)[C@H](C)NC(=O)[C@@H](N)CCCNC(=N)N)C(C)C)CSSC[C@@H]2NC(=O)[C@@H](NC(=O)[C@H](CC(C)C)NC(=O)[C@@H](NC(=O)[C@H](CCC(N)=O)NC(=O)[C@H](CC(C)C)NC(=O)[C@H](CC(=O)O)NC(=O)[C@@H](N)CCC(N)=O)[C@@H](C)O)CSSC[C@H](NC(=O)CNC(=O)[C@H](CC(=O)O)NC(=O)[C@H]([C@@H](C)O)NC2=O)C(=O)N[C@@H](CO)C(=O)N[C@@H](CCSC)C(=O)N[C@@H]([C@@H](C)O)C(=O)N[C@@H](CC(=O)O)C(=O)N[C@@H](CC(C)C)C(=O)N[C@@H](CO)C(=O)N[C@@H](C)C(=O)N[C@@H](CC(C)C)C(=O)N[C@H](C(=O)O)CSSC[C@@H](C(=O)NCC(=O)NCC(=O)N[C@@H](CO)C(=O)N[C@@H](CCCNC(=N)N)C(=O)N[C@@H](Cc2c[nH]c3ccccc23)C(=O)O)NC(=O)[C@H]([C@@H](C)O)NC(=O)[C@H](Cc2ccc(O)cc2)NC(=O)[C@H]([C@@H](C)CC)NC(=O)[C@H](C(C)C)NC(=O)[C@H](C)NC(=O)[C@H](CCCNC(=N)N)NC1=O [[F(B20)Y]R3/I5]
- fold lower activation potency towards RXFP4 than wild-type R3/I5 (human RXFP4 [1]; lower than wild-type R3/I5): ~ 15 fold
- fold lower activation potency towards RXFP3 compared with wild-type R3/I5 (human RXFP3 [2]): ~ 3 fold
- fold lower binding potency towards RXFP4 compared with wild-type R3/I5 (human RXFP4 [3]; lower than wild-type R3/I5): ~ 3 fold

Compound: CC[C@H](C)[C@@H]1NC(=O)[C@H](Cc2ccccc2)NC(=O)[C@H](CCC(=O)O)NC(=O)[C@H](CC(C)C)NC(=O)CNC(=O)[C@@H](NC(=O)[C@H](CC(C)C)NC(=O)[C@H](CCCCN)NC(=O)[C@@H](NC(=O)CNC(=O)[C@H](Cc2ccc(O)cc2)NC(=O)[C@@H]2CCCN2C(=O)[C@H](C)NC(=O)[C@H](C)NC(=O)[C@@H](N)CCCNC(=N)N)C(C)C)CSSC[C@@H]2NC(=O)[C@@H](NC(=O)[C@H](CC(C)C)NC(=O)[C@@H](NC(=O)[C@H](CCC(N)=O)NC(=O)[C@H](CC(C)C)NC(=O)[C@H](CC(=O)O)NC(=O)[C@@H](N)CCC(N)=O)[C@@H](C)O)CSSC[C@H](NC(=O)CNC(=O)[C@H](CC(=O)O)NC(=O)[C@H]([C@@H](C)O)NC2=O)C(=O)N[C@@H](CO)C(=O)N[C@@H](CCSC)C(=O)N[C@@H]([C@@H](C)O)C(=O)N[C@@H](CC(=O)O)C(=O)N[C@@H](CC(C)C)C(=O)N[C@@H](CO)C(=O)N[C@@H](C)C(=O)N[C@@H](CC(C)C)C(=O)N[C@H](C(=O)O)CSSC[C@@H](C(=O)NCC(=O)NCC(=O)N[C@@H](CO)C(=O)N[C@@H](CCCNC(=N)N)C(=O)N[C@@H](Cc2c[nH]c3ccccc23)C(=O)O)NC(=O)[C@H]([C@@H](C)O)NC(=O)[C@H](Cc2ccccc2)NC(=O)[C@H]([C@@H](C)CC)NC(=O)[C@H](C(C)C)NC(=O)[C@H](C)NC(=O)[C@H](CCCNC(=N)N)NC1=O [[R(B12)L]R3/I5]
- fold lower activation potency towards RXFP3 compared with wild-type R3/I5 (human RXFP3 [2]): ~ 1600 fold
- fold lower binding potency towards RXFP3 compared with wild-type R3/I5 (human RXFP3 [4]; lower than wild-type R3/I5): ~ 110 fold

Compound: CC[C@H](C)[C@@H]1NC(=O)[C@H](Cc2ccccc2)NC(=O)[C@H](CCC(=O)O)NC(=O)[C@H](CCCNC(=N)N)NC(=O)CNC(=O)[C@@H](NC(=O)[C@H](CC(C)C)NC(=O)[C@H](CCCNC(=N)N)NC(=O)[C@@H](NC(=O)CNC(=O)[C@H](Cc2ccc(O)cc2)NC(=O)[C@@H]2CCCN2C(=O)[C@H](C)NC(=O)[C@H](C)NC(=O)[C@@H](N)CCCNC(=N)N)C(C)C)CSSC[C@@H]2NC(=O)[C@@H](NC(=O)[C@H](CO)NC(=O)[C@H](CO)NC(=O)[C@H](CO)NC(=O)[C@H](CC(C)C)NC(=O)CNC(=O)[C@H](C)NC(=O)[C@H](CC(C)C)NC(=O)[C@@H](NC(=O)[C@@H](N)CC(=O)O)C(C)C)CSSC[C@H](NC(=O)CNC(=O)[C@H](Cc3c[nH]c4ccccc34)NC(=O)[C@H](CCCCN)NC2=O)C(=O)N[C@@H](CO)C(=O)N[C@@H](CCCCN)C(=O)N[C@@H](CO)C(=O)N[C@@H](CCC(=O)O)C(=O)N[C@@H]([C@@H](C)CC)C(=O)N[C@@H](CO)C(=O)N[C@@H](CO)C(=O)N[C@@H](CC(C)C)C(=O)N[C@H](C(=O)O)CSSC[C@@H](C(=O)NCC(=O)NCC(=O)N[C@@H](CO)C(=O)N[C@@H](CCCNC(=N)N)C(=O)N[C@@H](Cc2c[nH]c3ccccc23)C(=O)O)NC(=O)[C@H]([C@@H](C)O)NC(=O)[C@H](Cc2ccccc2)NC(=O)[C@H]([C@@H](C)CC)NC(=O)[C@H](C(C)C)NC(=O)[C@H](C)NC(=O)[C@H](CCCNC(=N)N)NC1=O [relaxin-3, reference compound]
- EC50 (human RXFP4 [1]; HEK293T cells cotransfected with human RXFP4 and CRE-controlled NanoLuc reporter, 1.0 μM forskolin, 37 °C, 4 h, mean ± SE, n = 3, SEM, read-out: pEC50 RXFP4 (converted)): 0.105 nM
- EC50 (human RXFP3 [2]; HEK293T cells cotransfected with human RXFP3 and CRE-controlled NanoLuc reporter, 1.0 μM forskolin, 37 °C, 4 h, mean ± SE, n = 3, N.D., not detectable, SEM, read-out: pEC50 RXFP3 (converted)): 0.0245 nM
- IC50 (human RXFP4 [3]; HEK293T cells transiently overexpressing human RXFP4, 0.5 nM NanoLuc-conjugated R3/I5 tracer, 21 °C, 2 h, mean ± SE, n = 3, SEM, read-out: pIC50 RXFP4 (converted)): 12.3 nM
- IC50 (human RXFP3 [4]; HEK293T cells transiently overexpressing human RXFP3, 0.5 nM NanoLuc-conjugated R3/I5 tracer, 21 °C, 2 h, mean ± SE, n = 3, SEM, read-out: pIC50 RXFP3 (converted)): 2.04 nM

- pEC50 RXFP4 (human RXFP4 [1]; [5]): 10.32 ± 0.03
- pEC50 RXFP3 (human RXFP3 [2]; [6]): 10.44 ± 0.03
- pIC50 RXFP4 (human RXFP4 [3]; [7]): 8.24 ± 0.03
- pIC50 RXFP3 (human RXFP3 [4]; [8]): 8.85 ± 0.02
Compound: R3/I5: chimeric peptide containing the B-chain of relaxin-3 and the A-chain of INSL5 [reference compound]

- pEC50 RXFP4 (human RXFP4 [1]; [5]): 8.59 ± 0.05
- fold lower activation potency towards RXFP4 compared with INSL5 (human RXFP4 [1]; lower than wild-type INSL5): ~ 6 fold
- pEC50 RXFP3 (human RXFP3 [2]; [6]): 6.90 ± 0.04
- fold lower activation potency towards RXFP3 than relaxin-3 (human RXFP3 [2]; lower than relaxin-3): ~ 5000 fold
- pIC50 RXFP4 (human RXFP4 [3]; [7]): 6.39 ± 0.05
- fold lower binding potency towards RXFP4 compared with wild-type INSL5 (human RXFP4 [3]; lower than wild-type INSL5): ~ 23 fold
- pIC50 RXFP3 (human RXFP3 [4]; [8]): 6.01 ± 0.06
- fold lower binding potency towards RXFP3 compared with wild-type INSL5 (human RXFP3 [4]; lower than wild-type INSL5): ~ 18 fold
Compound: [A(B20)G,S(B21)G]INSL5: recombinant mature two-chain INSL5 mutant (Insulin-like peptide INSL5 B … KESVRLCGLEYIRTVIYICGGSRW; Insulin-like peptide INSL5 A … QDLQTLCCTDGCSMTDLSALC; not fully specified; ends and bridges not checked; UniProt Q9Y5Q6 23-46; Q9Y5Q6 115-135, looked up, variant A20G S21G)
